Data published in the RNAGym collection of RNA variant scans (doi:10.1093/molbev/msab373).

B1: Azoarcus group I ribozyme (parent)
chain: GUGCCUUGCGCCGGGAAACCACGCAAGGGAUGGUGUCAAAUUCGGCGAAACCUAAGCGCCCGCCCGGGCGUAUGGCAACGCCGAGCCAAGCUUCGGCGCCUGCGCCGAUGAAGGUGUAGAGACUAGACGGCACCCACCUAAGGCAAACGCUAUGGUGAAGGCAUAGUCCAGGGAGUGGCGAAAGUCACACAAACCGG

Variants of: B1
Test: reverse-splicing fitness (ratio to wild type); higher = more active; in vitro selection; Mg2+ level not given
In short: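 An in vitro group I ribozyme library with randomized positions was T7-transcribed and gel-purified. In triplicate, 10 pmol RNA in EPPS pH 7.5 was reacted with 50 pmoles of a 30-nt RNA substrate for 1 h at 37 °C across several added MgCl2 levels (1–48 mM), then stopped with EDTA. Products were reverse transcribed from a substrate-complementary primer, PCR-amplified and sequenced (HiSeq 4000). Fitness is a variant's read proportion after selection over that before, normalised to wild type.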

| Variant | reverse-splicing fitness |
| --- | --- |
| C82U A111C A120U A145C C150G C169U | 0.00396 |
| C82U A111C A120U A145C C150G C169G | 0.00351 |
| C82U A111C A120U A145C C150G C169A | 0.00271 |
| C82U A111C A120G A145U C150A C169U | 0.006 |
| C82U A111C A120G A145U C150A C169A | 0.00826 |
| C82U A111C A120G A145U C150A C169G | 0.00681 |
| C82U A111C A120G A145U C169A U176A | 0.00825 |
| C82U A111C A120G A145U C169A U176C | 0.01 |
| C82U A111C A120G A145U C169A U176G | 0.00418 |
| C82U A111C A120G A145G C169G U176A | 0.019 |
| C82U A111C A120G A145G C169G U176C | 0.028 |
| C82U A111C A120G A145G C169G U176G | 0.00408 |
| C82U A111C A120G A145U C150A C169A U176A | 0.0102 |
| C82U A111C A120G A145U C150A C169A U176G | 0.00481 |
| C82U A111C A120G A145U C150A C169A U176C | 0.00775 |
| C82U A111C A120G A145U C169G U176G | 0.00395 |
| C82U A111C A120G A145U C169G U176C | 0.0109 |
| C82U A111C A120G A145U C169G U176A | 0.00938 |
| C82U A111C A120G A145C C150G C169U | 0.00662 |
| C82U A111C A120G A145C C150G C169G | 0.00642 |
| C82U A111C A120G A145C C150G C169A | 0.00748 |

| Variant | reverse-splicing fitness |
| --- | --- |
| C82U A111C A120G A145C C169U U176A | 0.0137 |
| C82U A111C A120G A145C C169U U176C | 0.00886 |
| C82U A111C A120G A145C C169U U176G | 0.00308 |
| C82U A111C A120G A145G C150A C169A U176C | 0.0218 |
| C82U A111C A120G A145G C150A C169A U176A | 0.0155 |
| C82U A111C A120G A145G C150A C169A U176G | 0.00573 |
| C82U A111C A120G C150U C169G U176G | 0.00441 |
| C82U A111C A120G C150U C169G U176A | 0.0121 |
| C82U A111C A120G C150U C169G U176C | 0.0161 |
| C82U A111C A120G C150G U176G | 0.00294 |
| C82U A111C A120G C150G U176C | 0.013 |
| C82U A111C A120G C150G U176A | 0.00789 |
| C82U A111C A120U A145C C150A C169G U176C | 0.00318 |
| C82U A111C A120U A145C C150A C169G U176A | 0.00308 |
| C82U A111C A120U A145C C150A C169G U176G | 0.00223 |
| C82U A111C A120G A145U | 0.0159 |
| C82U A111C A120G A145C | 0.0118 |
| C82U A111C A120G A145G | 0.0154 |
| C82U A111C A120C C150U C169A U176C | 0.0151 |
| C82U A111C A120C C150U C169A U176A | 0.0151 |
| C82U A111C A120C C150U C169A U176G | 0.00672 |
